Measured values taken from US20160272683A1 (Novo Nordisk, published 2016).
* marks the point of attachment. C18 diacid = O=C(O)CCCCCCCCCCCCCCCCC(=O)*

T1: human amylin receptor (human calcitonin receptor + human RAMP3) (human) (UniProt P30988)
T1 sequence (looked up) 1: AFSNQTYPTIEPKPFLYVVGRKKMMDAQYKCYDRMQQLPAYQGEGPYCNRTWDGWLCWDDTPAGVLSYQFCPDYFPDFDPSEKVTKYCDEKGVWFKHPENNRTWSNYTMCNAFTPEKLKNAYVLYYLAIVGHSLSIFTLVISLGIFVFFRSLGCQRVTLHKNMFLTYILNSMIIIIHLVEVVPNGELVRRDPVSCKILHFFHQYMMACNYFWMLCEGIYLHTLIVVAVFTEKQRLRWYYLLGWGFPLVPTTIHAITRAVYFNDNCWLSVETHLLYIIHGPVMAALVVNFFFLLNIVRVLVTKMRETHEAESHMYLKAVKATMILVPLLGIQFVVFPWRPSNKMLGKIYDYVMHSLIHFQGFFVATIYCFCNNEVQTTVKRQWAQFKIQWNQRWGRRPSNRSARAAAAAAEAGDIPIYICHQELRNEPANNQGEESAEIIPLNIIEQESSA
T1 sequence (looked up) 2: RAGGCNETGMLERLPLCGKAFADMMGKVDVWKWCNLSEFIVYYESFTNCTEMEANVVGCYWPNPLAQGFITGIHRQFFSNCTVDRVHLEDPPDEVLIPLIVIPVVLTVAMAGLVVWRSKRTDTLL

B1: [N-terminal(C18 diacid), 9I]mimylin (peptide)
peptide: {C18 diacid}-EASELSTAILGRLSAELHELATLPRTETGPESP-NH2
SMILES: CC[C@H](C)[C@H](NC(=O)[C@H](C)NC(=O)[C@@H](NC(=O)[C@H](CO)NC(=O)[C@H](CC(C)C)NC(=O)[C@H](CCC(=O)O)NC(=O)[C@H](CO)NC(=O)[C@H](C)NC(=O)[C@H](CCC(=O)O)NC(=O)CCCCCCCCCCCCCCCCC(=O)O)[C@@H](C)O)C(=O)N[C@@H](CC(C)C)C(=O)NCC(=O)N[C@@H](CCCNC(=N)N)C(=O)N[C@@H](CC(C)C)C(=O)N[C@@H](CO)C(=O)N[C@@H](C)C(=O)N[C@@H](CCC(=O)O)C(=O)N[C@@H](CC(C)C)C(=O)N[C@@H](Cc1c[nH]cn1)C(=O)N[C@@H](CCC(=O)O)C(=O)N[C@@H](CC(C)C)C(=O)N[C@@H](C)C(=O)N[C@H](C(=O)N[C@@H](CC(C)C)C(=O)N1CCC[C@H]1C(=O)N[C@@H](CCCNC(=N)N)C(=O)N[C@H](C(=O)N[C@@H](CCC(=O)O)C(=O)N[C@H](C(=O)NCC(=O)N1CCC[C@H]1C(=O)N[C@@H](CCC(=O)O)C(=O)N[C@@H](CO)C(=O)N1CCC[C@H]1C(N)=O)[C@@H](C)O)[C@@H](C)O)[C@@H](C)O
B2: [N-terminal(C18 diacid), 17I]mimylin (peptide)
peptide: {C18 diacid}-EASELSTAALGRLSAEIHELATLPRTETGPESP-NH2
SMILES: CC[C@H](C)[C@H](NC(=O)[C@H](CCC(=O)O)NC(=O)[C@H](C)NC(=O)[C@H](CO)NC(=O)[C@H](CC(C)C)NC(=O)[C@H](CCCNC(=N)N)NC(=O)CNC(=O)[C@H](CC(C)C)NC(=O)[C@H](C)NC(=O)[C@H](C)NC(=O)[C@@H](NC(=O)[C@H](CO)NC(=O)[C@H](CC(C)C)NC(=O)[C@H](CCC(=O)O)NC(=O)[C@H](CO)NC(=O)[C@H](C)NC(=O)[C@H](CCC(=O)O)NC(=O)CCCCCCCCCCCCCCCCC(=O)O)[C@@H](C)O)C(=O)N[C@@H](Cc1c[nH]cn1)C(=O)N[C@@H](CCC(=O)O)C(=O)N[C@@H](CC(C)C)C(=O)N[C@@H](C)C(=O)N[C@H](C(=O)N[C@@H](CC(C)C)C(=O)N1CCC[C@H]1C(=O)N[C@@H](CCCNC(=N)N)C(=O)N[C@H](C(=O)N[C@@H](CCC(=O)O)C(=O)N[C@H](C(=O)NCC(=O)N1CCC[C@H]1C(=O)N[C@@H](CCC(=O)O)C(=O)N[C@@H](CO)C(=O)N1CCC[C@H]1C(N)=O)[C@@H](C)O)[C@@H](C)O)[C@@H](C)O
B3: [N-terminal(C18 diacid), 20I]mimylin (peptide)
peptide: {C18 diacid}-EASELSTAALGRLSAELHEIATLPRTETGPESP-NH2
SMILES: CC[C@H](C)[C@H](NC(=O)[C@H](CCC(=O)O)NC(=O)[C@H](Cc1c[nH]cn1)NC(=O)[C@H](CC(C)C)NC(=O)[C@H](CCC(=O)O)NC(=O)[C@H](C)NC(=O)[C@H](CO)NC(=O)[C@H](CC(C)C)NC(=O)[C@H](CCCNC(=N)N)NC(=O)CNC(=O)[C@H](CC(C)C)NC(=O)[C@H](C)NC(=O)[C@H](C)NC(=O)[C@@H](NC(=O)[C@H](CO)NC(=O)[C@H](CC(C)C)NC(=O)[C@H](CCC(=O)O)NC(=O)[C@H](CO)NC(=O)[C@H](C)NC(=O)[C@H](CCC(=O)O)NC(=O)CCCCCCCCCCCCCCCCC(=O)O)[C@@H](C)O)C(=O)N[C@@H](C)C(=O)N[C@H](C(=O)N[C@@H](CC(C)C)C(=O)N1CCC[C@H]1C(=O)N[C@@H](CCCNC(=N)N)C(=O)N[C@H](C(=O)N[C@@H](CCC(=O)O)C(=O)N[C@H](C(=O)NCC(=O)N1CCC[C@H]1C(=O)N[C@@H](CCC(=O)O)C(=O)N[C@@H](CO)C(=O)N1CCC[C@H]1C(N)=O)[C@@H](C)O)[C@@H](C)O)[C@@H](C)O
B4: [N-terminal(C18 diacid), 18A]mimylin (peptide)
peptide: {C18 diacid}-EASELSTAALGRLSAELAELATLPRTETGPESP-NH2
SMILES: CC(C)C[C@H](NC(=O)[C@H](C)NC(=O)[C@H](C)NC(=O)[C@@H](NC(=O)[C@H](CO)NC(=O)[C@H](CC(C)C)NC(=O)[C@H](CCC(=O)O)NC(=O)[C@H](CO)NC(=O)[C@H](C)NC(=O)[C@H](CCC(=O)O)NC(=O)CCCCCCCCCCCCCCCCC(=O)O)[C@@H](C)O)C(=O)NCC(=O)N[C@@H](CCCNC(=N)N)C(=O)N[C@@H](CC(C)C)C(=O)N[C@@H](CO)C(=O)N[C@@H](C)C(=O)N[C@@H](CCC(=O)O)C(=O)N[C@@H](CC(C)C)C(=O)N[C@@H](C)C(=O)N[C@@H](CCC(=O)O)C(=O)N[C@@H](CC(C)C)C(=O)N[C@@H](C)C(=O)N[C@H](C(=O)N[C@@H](CC(C)C)C(=O)N1CCC[C@H]1C(=O)N[C@@H](CCCNC(=N)N)C(=O)N[C@H](C(=O)N[C@@H](CCC(=O)O)C(=O)N[C@H](C(=O)NCC(=O)N1CCC[C@H]1C(=O)N[C@@H](CCC(=O)O)C(=O)N[C@@H](CO)C(=O)N1CCC[C@H]1C(N)=O)[C@@H](C)O)[C@@H](C)O)[C@@H](C)O
B5: [N-terminal(C18 diacid), 8L]mimylin (peptide)
peptide: {C18 diacid}-EASELSTLALGRLSAELHELATLPRTETGPESP-NH2
SMILES: CC(C)C[C@H](NC(=O)[C@H](C)NC(=O)[C@H](CC(C)C)NC(=O)[C@@H](NC(=O)[C@H](CO)NC(=O)[C@H](CC(C)C)NC(=O)[C@H](CCC(=O)O)NC(=O)[C@H](CO)NC(=O)[C@H](C)NC(=O)[C@H](CCC(=O)O)NC(=O)CCCCCCCCCCCCCCCCC(=O)O)[C@@H](C)O)C(=O)NCC(=O)N[C@@H](CCCNC(=N)N)C(=O)N[C@@H](CC(C)C)C(=O)N[C@@H](CO)C(=O)N[C@@H](C)C(=O)N[C@@H](CCC(=O)O)C(=O)N[C@@H](CC(C)C)C(=O)N[C@@H](Cc1c[nH]cn1)C(=O)N[C@@H](CCC(=O)O)C(=O)N[C@@H](CC(C)C)C(=O)N[C@@H](C)C(=O)N[C@H](C(=O)N[C@@H](CC(C)C)C(=O)N1CCC[C@H]1C(=O)N[C@@H](CCCNC(=N)N)C(=O)N[C@H](C(=O)N[C@@H](CCC(=O)O)C(=O)N[C@H](C(=O)NCC(=O)N1CCC[C@H]1C(=O)N[C@@H](CCC(=O)O)C(=O)N[C@@H](CO)C(=O)N1CCC[C@H]1C(N)=O)[C@@H](C)O)[C@@H](C)O)[C@@H](C)O
B6: [N-terminal(C18 diacid), 6H]mimylin (peptide)
peptide: {C18 diacid}-EASELHTAALGRLSAELHELATLPRTETGPESP-NH2
SMILES: CC(C)C[C@H](NC(=O)[C@H](C)NC(=O)[C@H](C)NC(=O)[C@@H](NC(=O)[C@H](Cc1c[nH]cn1)NC(=O)[C@H](CC(C)C)NC(=O)[C@H](CCC(=O)O)NC(=O)[C@H](CO)NC(=O)[C@H](C)NC(=O)[C@H](CCC(=O)O)NC(=O)CCCCCCCCCCCCCCCCC(=O)O)[C@@H](C)O)C(=O)NCC(=O)N[C@@H](CCCNC(=N)N)C(=O)N[C@@H](CC(C)C)C(=O)N[C@@H](CO)C(=O)N[C@@H](C)C(=O)N[C@@H](CCC(=O)O)C(=O)N[C@@H](CC(C)C)C(=O)N[C@@H](Cc1c[nH]cn1)C(=O)N[C@@H](CCC(=O)O)C(=O)N[C@@H](CC(C)C)C(=O)N[C@@H](C)C(=O)N[C@H](C(=O)N[C@@H](CC(C)C)C(=O)N1CCC[C@H]1C(=O)N[C@@H](CCCNC(=N)N)C(=O)N[C@H](C(=O)N[C@@H](CCC(=O)O)C(=O)N[C@H](C(=O)NCC(=O)N1CCC[C@H]1C(=O)N[C@@H](CCC(=O)O)C(=O)N[C@@H](CO)C(=O)N1CCC[C@H]1C(N)=O)[C@@H](C)O)[C@@H](C)O)[C@@H](C)O
B7: [N-terminal(C18 diacid), 5H]mimylin (peptide)
peptide: {C18 diacid}-EASEHSTAALGRLSAELHELATLPRTETGPESP-NH2
SMILES: CC(C)C[C@H](NC(=O)[C@H](C)NC(=O)[C@H](C)NC(=O)[C@@H](NC(=O)[C@H](CO)NC(=O)[C@H](Cc1c[nH]cn1)NC(=O)[C@H](CCC(=O)O)NC(=O)[C@H](CO)NC(=O)[C@H](C)NC(=O)[C@H](CCC(=O)O)NC(=O)CCCCCCCCCCCCCCCCC(=O)O)[C@@H](C)O)C(=O)NCC(=O)N[C@@H](CCCNC(=N)N)C(=O)N[C@@H](CC(C)C)C(=O)N[C@@H](CO)C(=O)N[C@@H](C)C(=O)N[C@@H](CCC(=O)O)C(=O)N[C@@H](CC(C)C)C(=O)N[C@@H](Cc1c[nH]cn1)C(=O)N[C@@H](CCC(=O)O)C(=O)N[C@@H](CC(C)C)C(=O)N[C@@H](C)C(=O)N[C@H](C(=O)N[C@@H](CC(C)C)C(=O)N1CCC[C@H]1C(=O)N[C@@H](CCCNC(=N)N)C(=O)N[C@H](C(=O)N[C@@H](CCC(=O)O)C(=O)N[C@H](C(=O)NCC(=O)N1CCC[C@H]1C(=O)N[C@@H](CCC(=O)O)C(=O)N[C@@H](CO)C(=O)N1CCC[C@H]1C(N)=O)[C@@H](C)O)[C@@H](C)O)[C@@H](C)O
B8: [N-terminal(C18 diacid), 32H]mimylin (peptide)
peptide: {C18 diacid}-EASELSTAALGRLSAELHELATLPRTETGPEHP-NH2
SMILES: CC(C)C[C@H](NC(=O)[C@H](C)NC(=O)[C@H](C)NC(=O)[C@@H](NC(=O)[C@H](CO)NC(=O)[C@H](CC(C)C)NC(=O)[C@H](CCC(=O)O)NC(=O)[C@H](CO)NC(=O)[C@H](C)NC(=O)[C@H](CCC(=O)O)NC(=O)CCCCCCCCCCCCCCCCC(=O)O)[C@@H](C)O)C(=O)NCC(=O)N[C@@H](CCCNC(=N)N)C(=O)N[C@@H](CC(C)C)C(=O)N[C@@H](CO)C(=O)N[C@@H](C)C(=O)N[C@@H](CCC(=O)O)C(=O)N[C@@H](CC(C)C)C(=O)N[C@@H](Cc1c[nH]cn1)C(=O)N[C@@H](CCC(=O)O)C(=O)N[C@@H](CC(C)C)C(=O)N[C@@H](C)C(=O)N[C@H](C(=O)N[C@@H](CC(C)C)C(=O)N1CCC[C@H]1C(=O)N[C@@H](CCCNC(=N)N)C(=O)N[C@H](C(=O)N[C@@H](CCC(=O)O)C(=O)N[C@H](C(=O)NCC(=O)N1CCC[C@H]1C(=O)N[C@@H](CCC(=O)O)C(=O)N[C@@H](Cc1c[nH]cn1)C(=O)N1CCC[C@H]1C(N)=O)[C@@H](C)O)[C@@H](C)O)[C@@H](C)O

biological target: T1, human amylin receptor (human calcitonin receptor + human RAMP3) (human); assay: whole-cell competition vs 125I-rat amylin (Assay Va)

| Binder | IC50 [nM] |
| --- | --- |
| B1 | 0.417 |
| B2 | 1.48 |
| B3 | 0.511 |
| B4 | 0.329 |
| B5 | 0.275 |
| B6 | 1.31 |
| B7 | 0.832 |
| B8 | 1.26 |
